In assay [1] the target is rat NCAM F3 modules 1-2 (rat) (UniProt P13596). Nature of the assay: SPR (BIAcore2000), soluble FGFR Ig2 on immobilized NCAM F3 modules 1-2. (Surface plasmon resonance follows binding to a sensor surface in real time, without labels.)
Assay [2] concerns the target Ig2 module of mouse FGFR1 (IIIc isoform) (mouse) (UniProt P16092). The assay is described as follows: SPR (BIAcore2000), soluble NCAM F3 modules 1-2 on immobilized FGFR Ig2.

Chain of Ig2 module of mouse FGFR1 (IIIc isoform) (mouse) (P16092 other isoform, or with tags, fused parts or gaps limits assumed, form in doubt): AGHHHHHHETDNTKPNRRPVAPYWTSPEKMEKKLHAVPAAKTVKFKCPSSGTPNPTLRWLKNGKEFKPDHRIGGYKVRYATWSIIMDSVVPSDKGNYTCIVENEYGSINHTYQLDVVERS
Chain of rat NCAM F3 modules 1-2 (rat) (P13596 other isoform, or with tags, fused parts or gaps limits assumed, form in doubt): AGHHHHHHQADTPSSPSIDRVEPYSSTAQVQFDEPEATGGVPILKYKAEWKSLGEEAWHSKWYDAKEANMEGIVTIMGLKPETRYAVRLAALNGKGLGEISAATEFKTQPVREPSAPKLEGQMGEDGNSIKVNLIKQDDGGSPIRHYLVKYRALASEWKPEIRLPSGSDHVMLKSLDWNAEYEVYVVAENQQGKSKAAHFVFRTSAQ

For “Ig2 module of mouse FGFR1 (IIIc isoform) (from UniProt P16092 140-251) (receptor)”, in assay [1], the Kd – broadly, the constant that tells how readily two partners part at equilibrium – was 35 µM. For “rat NCAM F3 modules 1-2 (from UniProt P13596 507-705) (receptor)”, the Kd in assay [2] was found to be 12 µM.

(Values after patent publication US20120141451A1.)
